Consider 3 molecules from US20140274782A1, “AFFINITY REAGENTS AND METHODS FOR DETECTION, PURIFICATION, AND PROTEOMIC ANALYSIS OF METHYLATED PROTEINS” (The Board of Trustees of the Leland Stanford Junior …, priority 2013, published 2014).

For assay [1], the target named is T1, G9a and GLP (Homo sapiens, UniProt Q96KQ7+Q9H9B1).
T1 sequence (Q96KQ7 2-1210 limits assumed): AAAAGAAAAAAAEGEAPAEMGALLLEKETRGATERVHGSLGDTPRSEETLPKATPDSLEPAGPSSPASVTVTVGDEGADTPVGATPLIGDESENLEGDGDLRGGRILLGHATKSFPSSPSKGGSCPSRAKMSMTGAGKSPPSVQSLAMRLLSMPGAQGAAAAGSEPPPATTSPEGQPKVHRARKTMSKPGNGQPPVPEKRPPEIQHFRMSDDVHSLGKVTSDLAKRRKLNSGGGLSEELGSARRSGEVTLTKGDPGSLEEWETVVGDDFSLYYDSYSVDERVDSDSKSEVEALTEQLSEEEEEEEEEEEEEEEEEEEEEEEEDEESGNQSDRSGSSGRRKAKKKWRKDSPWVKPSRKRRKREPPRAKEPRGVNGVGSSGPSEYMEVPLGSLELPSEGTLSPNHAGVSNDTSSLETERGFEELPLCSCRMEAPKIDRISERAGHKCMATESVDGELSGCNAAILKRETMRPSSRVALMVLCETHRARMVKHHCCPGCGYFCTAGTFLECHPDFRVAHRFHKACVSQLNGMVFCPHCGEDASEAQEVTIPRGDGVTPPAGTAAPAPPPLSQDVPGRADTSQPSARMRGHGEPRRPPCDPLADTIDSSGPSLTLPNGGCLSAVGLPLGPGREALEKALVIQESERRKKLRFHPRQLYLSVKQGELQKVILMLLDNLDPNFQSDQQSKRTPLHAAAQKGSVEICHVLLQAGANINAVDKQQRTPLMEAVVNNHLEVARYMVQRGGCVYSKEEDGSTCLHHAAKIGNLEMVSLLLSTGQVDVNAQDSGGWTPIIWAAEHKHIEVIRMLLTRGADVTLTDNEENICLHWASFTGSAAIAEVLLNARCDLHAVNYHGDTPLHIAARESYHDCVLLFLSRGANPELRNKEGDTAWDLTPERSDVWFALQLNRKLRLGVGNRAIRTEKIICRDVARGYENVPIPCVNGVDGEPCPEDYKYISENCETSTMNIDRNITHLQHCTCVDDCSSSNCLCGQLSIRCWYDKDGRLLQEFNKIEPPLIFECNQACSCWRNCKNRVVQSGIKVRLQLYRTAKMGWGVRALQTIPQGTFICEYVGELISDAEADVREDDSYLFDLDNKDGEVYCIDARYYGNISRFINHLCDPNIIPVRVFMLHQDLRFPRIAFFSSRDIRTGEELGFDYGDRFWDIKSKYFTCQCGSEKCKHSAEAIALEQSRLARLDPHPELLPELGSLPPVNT
T1 sequence (Q9H9B1 2-1298 limits assumed): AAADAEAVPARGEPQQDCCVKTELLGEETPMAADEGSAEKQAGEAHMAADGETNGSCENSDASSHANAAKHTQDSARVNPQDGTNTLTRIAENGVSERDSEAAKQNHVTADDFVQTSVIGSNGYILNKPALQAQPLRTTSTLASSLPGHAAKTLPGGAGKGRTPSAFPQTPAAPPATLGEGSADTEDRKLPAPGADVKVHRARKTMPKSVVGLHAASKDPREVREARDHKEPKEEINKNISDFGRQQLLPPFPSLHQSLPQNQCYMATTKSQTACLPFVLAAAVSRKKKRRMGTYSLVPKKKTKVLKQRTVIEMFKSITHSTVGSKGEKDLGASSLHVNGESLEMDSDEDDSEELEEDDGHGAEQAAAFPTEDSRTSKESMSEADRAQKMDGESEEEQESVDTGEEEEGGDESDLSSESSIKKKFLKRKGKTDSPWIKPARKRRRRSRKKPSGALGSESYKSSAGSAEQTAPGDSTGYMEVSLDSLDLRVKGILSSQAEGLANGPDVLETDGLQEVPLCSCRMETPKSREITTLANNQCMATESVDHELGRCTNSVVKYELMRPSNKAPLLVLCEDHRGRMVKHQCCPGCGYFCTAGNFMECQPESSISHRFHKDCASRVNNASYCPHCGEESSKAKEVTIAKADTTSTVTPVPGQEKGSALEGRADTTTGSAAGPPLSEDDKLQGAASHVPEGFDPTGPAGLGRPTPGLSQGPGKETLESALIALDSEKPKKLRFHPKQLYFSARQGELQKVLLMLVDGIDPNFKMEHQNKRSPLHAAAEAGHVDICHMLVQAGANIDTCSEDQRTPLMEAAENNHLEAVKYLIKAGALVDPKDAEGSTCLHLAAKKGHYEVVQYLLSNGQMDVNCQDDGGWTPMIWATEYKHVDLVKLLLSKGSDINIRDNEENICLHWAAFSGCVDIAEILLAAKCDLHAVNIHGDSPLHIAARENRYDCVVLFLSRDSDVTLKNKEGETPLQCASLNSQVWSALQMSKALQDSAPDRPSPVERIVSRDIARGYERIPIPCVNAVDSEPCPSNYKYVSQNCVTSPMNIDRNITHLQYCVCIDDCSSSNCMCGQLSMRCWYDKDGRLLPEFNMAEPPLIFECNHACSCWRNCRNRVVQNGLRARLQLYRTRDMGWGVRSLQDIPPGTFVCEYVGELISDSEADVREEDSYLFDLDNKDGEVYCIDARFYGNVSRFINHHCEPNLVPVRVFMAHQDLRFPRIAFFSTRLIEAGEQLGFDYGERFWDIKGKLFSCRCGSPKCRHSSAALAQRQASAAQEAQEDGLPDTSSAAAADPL
As to the kind of experiment: Triple SILAC pull-down after UNC0638 treatment of 293T cells, DMSO/UNC0638 ratio of protein captured by 3×MBT.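 On all read-outs here: mass spectrometry (Q-Exactive) SILAC quantitation, DMSO/UNC0638 ratio computed after subtracting 3×MBTD355N mutant pull-down background, only proteins with at least twofold 3×MBT over mutant signal considered.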 In kind it is cell-based. On the set-up: endogenous in cells; host or cells: HEK 293T. As to conditions: all values in log base 2; for Relative to UNC0638 UNC Heavy / Relative to UNC0638 UNC Light: SILAC ratio DMSO relative to UNC0638, pull-down with 3xMBT; for Relative to UNC0638 UNC Heavy: UNC0638 in heavy SILAC media; for Relative to UNC0638 UNC Light: UNC0638 in light SILAC media; for Relative to UNC0638 Average: average of UNC Light and UNC Heavy experiments.

Assay [2] has as its system 3×MBT domain of L3MBTL1. As to the kind of experiment: Triple SILAC pull-down, 3xMBT/3xMBTD355N ratio (cytoplasmic, nuclear and chromatin fractions of 293T cells).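 On all read-outs here: proteins quantified with MaxQuant, requiring at least two unique peptides and quantification in both label directions, normalized to the mean of proteins from a digested loading control.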 In kind it is binding, human. To be noted: SILAC ratio 3xMBT vs 3xMBTD355N pull-down, 293T cells, all values in log base 2; for 3xMBT/D355N UNC Heavy: experiment with UNC0638 in heavy SILAC media; for 3xMBT/D355N UNC Light: experiment with UNC0638 in light SILAC media.

B1: XPC (protein, UniProt Q01831 2-940, looked up)
DNA repair protein …: ARKRAAGGEPRGRELRSQKSKAKSKARREEEEEDAFEDEKPPKKSLLSKVSQGKRKRGCSHPGGSADGPAKKKVAKVTVKSENLKVIKDEALSDGDDLRDFPSDLKKAHHLKRGATMNEDSNEEEEESENDWEEVEELSEPVLGDVRESTAFSRSLLPVKPVEIEIETPEQAKTRERSEKIKLEFETYLRRAMKRFNKGVHEDTHKVHLLCLLANGFYRNNICSQPDLHAIGLSIIPARFTRVLPRDVDTYYLSNLVKWFIGTFTVNAELSASEQDNLQTTLERRFAIYSARDDEELVHIFLLILRALQLLTRLVLSLQPIPLKSATAKGKKPSKERLTADPGGSSETSSQVLENHTKPKTSKGTKQEETFAKGTCRPSAKGKRNKGGRKKRSKPSSSEEDEGPGDKQEKATQRRPHGRERRVASRVSYKEESGSDEAGSGSDFELSSGEASDPSDEDSEPGPPKQRKAPAPQRTKAGSKSASRTHRGSHRKDPSLPAASSSSSSSKRGKKMCSDGEKAEKRSIAGIDQWLEVFCEQEEKWVCVDCVHGVVGQPLTCYKYATKPMTYVVGIDSDGWVRDVTQRYDPVWMTVTRKCRVDAEWWAETLRPYQSPFMDREKKEDLEFQAKHMDQPLPTAIGLYKNHPLYALKRHLLKYEAIYPETAAILGYCRGEAVYSRDCVHTLHSRDTWLKKARVVRLGEVPYKMVKGFSNRARKARLAEPQLREENDLGLFGYWQTEEYQPPVAVDGKVPRNEFGNVYLFLPSMMPIGCVQLNLPNLHRVARKLDIDCVQAITGFDFHGGYSHPVTDGYIVCEEFKDVLLTAWENEQAVIERKEKEKKEKRALGNWKLLAKGLLIRERLKRRYGPKSEAAAPHTDAGGGLSSDEEEGTSSQAEAARILAASWPQNREDEEKQKLKGGPKKTKREKKAAASHLFPFEQL
Turning to B1, in assay [1], the “Relative to UNC0638 UNC Heavy” value is given as 0.03 log base 2, the “Relative to UNC0638 UNC Light” value is given as 0.03 log base 2 and the “Relative to UNC0638 Average” value was determined as 0.03 log base 2. Moreover, in assay [2], the “3xMBT/D355N UNC Heavy” value is 2.62 log base 2 and the “3xMBT/D355N UNC Light” value was determined as 3.99 log base 2.

B2: MARS (protein, UniProt P56192 1-900, looked up)
Methionine--tRNA ligase, …: MRLFVSDGVPGCLPVLAAAGRARGRAEVLISTVGPEDCVVPFLTRPKVPVLQLDSGNYLFSTSAICRYFFLLSGWEQDDLTNQWLEWEATELQPALSAALYYLVVQGKKGEDVLGSVRRALTHIDHSLSRQNCPFLAGETESLADIVLWGALYPLLQDPAYLPEELSALHSWFQTLSTQEPCQRAAETVLKQQGVLALRPYLQKQPQPSPAEGRAVTNEPEEEELATLSEEEIAMAVTAWEKGLESLPPLRPQQNPVLPVAGERNVLITSALPYVNNVPHLGNIIGCVLSADVFARYSRLRQWNTLYLCGTDEYGTATETKALEEGLTPQEICDKYHIIHADIYRWFNISFDIFGRTTTPQQTKITQDIFQQLLKRGFVLQDTVEQLRCEHCARFLADRFVEGVCPFCGYEEARGDQCDKCGKLINAVELKKPQCKVCRSCPVVQSSQHLFLDLPKLEKRLEEWLGRTLPGSDWTPNAQFITRSWLRDGLKPRCITRDLKWGTPVPLEGFEDKVFYVWFDATIGYLSITANYTDQWERWWKNPEQVDLYQFMAKDNVPFHSLVFPCSALGAEDNYTLVSHLIATEYLNYEDGKFSKSRGVGVFGDMAQDTGIPADIWRFYLLYIRPEGQDSAFSWTDLLLKNNSELLNNLGNFINRAGMFVSKFFGGYVPEMVLTPDDQRLLAHVTLELQHYHQLLEKVRIRDALRSILTISRHGNQYIQVNEPWKRIKGSEADRQRAGTVTGLAVNIAALLSVMLQPYMPTVSATIQAQLQLPPPACSILLTNFLCTLPAGHQIGTVSPLFQKLENDQIESLRQRFGGGQAKTSPKPAVVETVTTAKPQQIQALMDEVTKQGNIVRELKAQKADKNEVAAEVAKLLDLKKQLAVAEGKPPEAPKGKKKK
As to B2, in assay [1], the “Relative to UNC0638 UNC Heavy” value stood at 0.15 log base 2, the “Relative to UNC0638 UNC Light” value is reported as −0.08 log base 2 and the “Relative to UNC0638 Average” value worked out at 0.03 log base 2. Moreover, in assay [2], the “3xMBT/D355N UNC Heavy” value stood at 1.87 log base 2 and the “3xMBT/D355N UNC Light” value was determined as 1.56 log base 2.

B3: PAICS (protein, UniProt P22234 2-425, looked up)
Bifunctional …: ATAEVLNIGKKLYEGKTKEVYELLDSPGKVLLQSKDQITAGNAARKNHLEGKAAISNKITSCIFQLLQEAGIKTAFTRKCGETAFIAPQCEMIPIEWVCRRIATGSFLKRNPGVKEGYKFYPPKVELFFKDDANNDPQWSEEQLIAAKFCFAGLLIGQTEVDIMSHATQAIFEILEKSWLPQNCTLVDMKIEFGVDVTTKEIVLADVIDNDSWRLWPSGDRSQQKDKQSYRDLKEVTPEGLQMVKKNFEWVAERVELLLKSESQCRVVVLMGSTSDLGHCEKIKKACGNFGIPCELRVTSAHKGPDETLRIKAEYEGDGIPTVFVAVAGRSNGLGPVMSGNTAYPVISCPPLTPDWGVQDVWSSLRLPSGLGCSTVLSPEGSAQFAAQIFGLSNHLVWSKLRASILNTWISLKQADKKIRECNL
Turning to B3, in assay [1], the “Relative to UNC0638 UNC Heavy” value is reported as −0.03 log base 2, the “Relative to UNC0638 UNC Light” value was found to be 0.05 log base 2 and the “Relative to UNC0638 Average” value was 0.01 log base 2. Further, in assay [2], the “3xMBT/D355N UNC Heavy” value is on record as 1.12 log base 2 and the “3xMBT/D355N UNC Light” value is listed as 1.04 log base 2.
